The target of experiment [1] is FLAG tagged human Ang2 (Alexis Biochemicals) (human) (UniProt O15123). Briefly: competition ELISA, FLAG-hAng2 (0.02 nM) on coated hTie2/Fc. (An ELISA detects its analyte on a solid surface through an enzyme-linked reagent.)
Experiment [2] shares this target. Description: AlphaScreen competition, periplasmic extract, FLAG-hAng2 / biotin-hTie2/Fc. A general note: Alpha assays give light when donor and acceptor beads are brought close together.
The target is the same in experiment [3]. Briefly: competition ELISA, periplasmic extract, FLAG-hAng2 on hTie2/Fc.
Experiment [4] deals with FLAG-tagged human Ang2 (human) (UniProt O15123). Description: competition ELISA: FLAG-hAng2 binding to coated hTie2-Fc.
Experiment [5] deals with FLAG-tagged recombinant human Ang1 (human) (UniProt Q15389). Briefly: ratio of IC50s in hAng1/hTie2 and hAng2/hTie2 competition ELISA.
Experiment [6] concerns the target FLAG-tagged human Ang2 (human) (UniProt O15123). Description: competition ELISA: FLAG-hAng2 binding to coated hTie2-Fc. This is another data set of the same source.

Like-named read-outs stand apart in the source and are kept apart here.

Usually IC50 stands for the concentration that inhibits the measured activity by half. Lower therefore signals greater potency in that assay.

FLAG-tagged recombinant human Ang1 (human), sequence (Q15389 20-498 limits assumed): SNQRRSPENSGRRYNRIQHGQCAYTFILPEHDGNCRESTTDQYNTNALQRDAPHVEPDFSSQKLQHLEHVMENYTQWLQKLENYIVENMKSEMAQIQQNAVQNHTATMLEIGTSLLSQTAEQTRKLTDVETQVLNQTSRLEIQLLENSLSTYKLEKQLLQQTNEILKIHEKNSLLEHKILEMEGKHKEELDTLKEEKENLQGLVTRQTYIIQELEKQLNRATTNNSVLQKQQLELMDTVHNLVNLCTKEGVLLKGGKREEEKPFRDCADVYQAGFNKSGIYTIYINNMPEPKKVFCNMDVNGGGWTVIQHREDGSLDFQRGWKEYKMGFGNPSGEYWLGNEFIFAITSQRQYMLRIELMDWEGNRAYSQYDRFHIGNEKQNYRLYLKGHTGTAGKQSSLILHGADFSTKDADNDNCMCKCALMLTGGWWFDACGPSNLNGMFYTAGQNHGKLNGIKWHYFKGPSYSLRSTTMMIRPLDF
FLAG tagged human Ang2 (Alexis Biochemicals) (human), sequence (O15123 19-496): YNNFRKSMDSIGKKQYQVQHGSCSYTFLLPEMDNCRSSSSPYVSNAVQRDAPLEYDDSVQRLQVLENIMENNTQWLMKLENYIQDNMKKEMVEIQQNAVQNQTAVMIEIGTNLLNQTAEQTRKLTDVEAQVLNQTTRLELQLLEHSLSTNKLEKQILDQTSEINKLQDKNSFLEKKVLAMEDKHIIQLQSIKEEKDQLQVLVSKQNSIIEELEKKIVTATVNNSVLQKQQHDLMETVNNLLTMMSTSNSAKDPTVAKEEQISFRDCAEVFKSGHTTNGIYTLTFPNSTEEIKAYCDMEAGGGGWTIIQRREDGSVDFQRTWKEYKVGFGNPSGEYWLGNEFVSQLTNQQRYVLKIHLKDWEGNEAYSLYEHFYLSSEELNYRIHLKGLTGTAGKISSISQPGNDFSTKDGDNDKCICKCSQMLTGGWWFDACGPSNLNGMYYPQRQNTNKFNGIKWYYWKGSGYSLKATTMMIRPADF
FLAG-tagged human Ang2 (human), sequence (O15123 19-496): as above

B1: VHH 8A11 (VHH, not shown: small tags and cut ends)
VHH: EVQLVESGGGLVQAGGSLRLSCAASGRTFSSYAMGWFRQAPGKELEFVTAVSWSGGSTYYADSVKGRFTISRDSAKNTVYLQMNSLKPEDTAVYYCAAQSTIVEVTTLEAYDYWGQGTQVTVSS
In the case of B1, the IC50 in experiment [1] was 30.2 nM. The % inh in experiment [2] was determined as 57%; in experiment [3] it was 67%.

B2: VHH 15H04 (VHH, not shown: small tags and cut ends)
VHH: EVQLVESGGGLVQAGGSLGLSCAASERTLPSYVMGWFRQAPGKELEFVAGISWSSGRTYYTDSVKGRFTISRDAAENTWYLQMNSLKPEDTAVYYCASNSVSEPTLHTWQYEASYDYWGQGTQVTVSS
Turning to B2, the IC50 in experiment [1] was determined as 18.6 nM. For the same molecule, the values for the % inh in experiment [2] and in experiment [3] were 57% and 82%, respectively.

B3: VHH 21G10 (VHH, not shown: small tags and cut ends)
VHH: EVQLVESGGGLVQAGGSLRLSCAASGFTLDDYAIGWFRQAPGKEREGVSCISSSDGSTTYADSVKGRFTVSSDNAKNTVYLQMNSLKPEDTAVYYCAAGLRGRYYRGTYSLVCAPYEYDFWGQGTQVTVSS
As to B3, the IC50 in experiment [1] amounted to 6.2 nM.

B4: VHH 00908 (VHH, not shown: small tags and cut ends)
VHH: EVQLVESGGGLVQPGGSLRLSCAASGITLDDYAIGWFRQAPGKEREGVSSIRDNGGSTYYADSVKGRFTISSDNSKNTVYLQMNSLRPEDTAVYYCAAVPAGRLRYGEQWYPIYEYDAWGQGTLVTVSS
Turning to B4, the IC50 in experiment [4] was 0.045 nM. The hAng1/hAng2 IC50 ratio in experiment [5] is over 192000.

B5: VHH 00933 (VHH, not shown: small tags and cut ends)
VHH: EVQLVESGGGLVQPGGSLRLSCAASGITLDDYAIGWFRQAPGKEREGVSAIRDNGGSTYYADSVKGRFTISSDNSKNTVYLQMNSLRPEDTAVYYCAAVPAGRLRYGEQWYPIYEYDAWGQGTLVTVSS
In experiment [4], B5 displayed an IC50 of 0.056 nM. In experiment [5], the hAng1/hAng2 IC50 ratio is over 180000.

B6: VHH 00048 (VHH, not shown: small tags and cut ends)
VHH: EVQLVESGGGLVQAGGSLRLSCAASGFTLDDYAIGWFRQAPGKEREGVSSIRDSDGSTYYADSVKGRFTISSDNDKNTVYLQMNSLKPEDTAVYYCAAVPAGRLRFGEQWYPLYEYDAWGQGTLVTVSS
As for B6, the IC50 in experiment [6] was 0.6 nM.

B7: VHH 00054 (VHH, not shown: small tags and cut ends)
VHH: EVQLVESGGGLVQPGGSLRLSCAASGFTLDDYAIGWFRQAPGKEREGVSSIRDNDGSTYYADSVKGRFTISRDNSKNTVYLQMNSLRPEDTAVYYCAAVPAGRLRFGEQWYPLYEYDAWGQGTLVTVSS
Molecule B7 displayed an IC50 in experiment [6] of 9.5 nM.

B8: VHH 00936 (VHH, not shown: small tags and cut ends)
VHH: EVQLVESGGGLVQPGGSLRLSCAVSGITLDDYAIGWFRQAPGKEREGVSAIRDNGGSTYYADSVKGRFTISSDNSKNTVYLQMNSLRPEDTAVYYCAAVPAGRLRYGEQWYPIYEYDAWGQGTLVTVSS
B8 yielded an IC50 in experiment [4] of 0.045 nM. Further, the hAng1/hAng2 IC50 ratio in experiment [5] is over 224000.

B9: VHH 00934 (VHH, not shown: small tags and cut ends)
VHH: EVQLVESGGGLVQPGGSLRLSCAASGITLDDYAIGWFRQAPGKEREGVSAIRESGGSTYYADSVKGRFTISSDNSKNTVYLQMNSLRPEDTAVYYCAAVPAGRLRYGEQWYPIYEYDAWGQGTLVTVSS
For B9, the IC50 in experiment [4] is 0.064 nM. Moreover, in experiment [5], the hAng1/hAng2 IC50 ratio was over 157000.

B10: VHH 00956 (VHH, not shown: small tags and cut ends)
VHH: EVQLVESGGGLVQPGGSLRLSCAASGFTLDDYAIGWFRQAPGKEREGVSAIRSSGGSTYYADSVKGRFTISSDNSKNTVYLQMNSLRPEDTAVYYCAAVPAGRLRFGEQWYPLYEYDAWGQGTLVTVSS
In turn, B10 yielded an IC50 in experiment [4] of 1.3 nM. For the same molecule, in experiment [5], the hAng1/hAng2 IC50 ratio was over 7730.

B11: VHH 00043 (VHH, not shown: small tags and cut ends)
VHH: EVQLVESGGGLVQPGGSLRLSCAASGFTLDDYAIGWFRQAPGKEREGVSSIRDNDGSTYYADSVKGRFTISRDNAKNTVYLQMNSLRPEDTAVYYCAAVPAGRLRFGEQWYPLYEYDAWGQGTLVTVSS
B11: the IC50 in experiment [6] was found to be 9.5 nM.

B12: VHH 00935 (VHH, not shown: small tags and cut ends)
VHH: EVQLVESGGGLVQPGGSLRLSCAASGITLDDYAIGWFRQAPGKEREGVSAIRSSGGSTYYADSVKGRFTISSDNSKNTVYLQMNSLRPEDTAVYYCAAVPAGRLRYGEQWYPIYEYDAWGQGTLVTVSS
In experiment [4], B12 gave an IC50 of 0.068 nM. In addition, the hAng1/hAng2 IC50 ratio in experiment [5] was over 146000.

B13: VHH 00041 (VHH, not shown: small tags and cut ends)
VHH: EVQLVESGGGLVQPGGSLRLSCAASGFTLDDYAIGWFRQAPGKEREGVSSIRDNDGSTYYADSVKGRFTISSDNAKNTVYLQMNSLRPEDTAVYYCAAVPAGRLRFGEQWYPLYEYDAWGQGTLVTVSS
In turn, B13 came in with an IC50 in experiment [6] of 0.6 nM.

B14: VHH 00937 (VHH, not shown: small tags and cut ends)
VHH: EVQLVESGGGLVQPGGSLRLSCAVSGITLDDYAIGWFRQAPGKEREGVSAIRESGGSTYYADSVKGRFTISSDNSKNTVYLQMNSLRPEDTAVYYCAAVPAGRLRYGEQWYPIYEYDAWGQGTLVTVSS
Consider B14, for which the IC50 in experiment [4] was found to be 0.054 nM. Further, the hAng1/hAng2 IC50 ratio in experiment [5] is over 186000.

B15: VHH 00052 (VHH, not shown: small tags and cut ends)
VHH: EVQLVESGGGLVQPGGSLRLSCAASGFTLDDYAIGWFRQAPGKEREGVSSIRDNDGSTYYADSVKGRFTISSDNDKNTVYLQMNSLRPEDTAVYYCAAVPAGRLRFGEQWYPLYEYDAWGQGTLVTVSS
In the case of B15, the IC50 in experiment [6] turned out to be 1 nM.

B16: VHH 00932 (VHH, not shown: small tags and cut ends)
VHH: EVQLVESGGGLVQPGGSLRLSCAVSGITLDDYAIGWFRQAPGKEREGVSSIRDNGGSTYYADSVKGRFTISSDNSKNTVYLQMNSLRPEDTAVYYCAAVPAGRLRYGEQWYPIYEYDAWGQGTLVTVSS
For the molecule B16, the IC50 in experiment [4] turned out to be 0.049 nM. For the same molecule, in experiment [5], the hAng1/hAng2 IC50 ratio was over 206000.

B17: VHH 00025 (VHH, not shown: small tags and cut ends)
VHH: EVQLVESGGGLVQAGGSLRLSCAASGFTLDDYAIGWFRQAPGKEREGVSTIRDSDGSTYYADSVKGRFTISSDNDKNTVYLQMNSLKPEDTAVYYCAAVPAGRLRFGEQWYPLYEYDAWGQGTLVTVSS
B17 returned a 50% inhibitory concentration (IC50) in experiment [6] of 2.1 nM.

B18: VHH 00938 (VHH, not shown: small tags and cut ends)
VHH: EVQLVESGGGLVQPGGSLRLSCAVSGITLDDYAIGWFRQAPGKEREGVSAIRSSGGSTYYADSVKGRFTISSDNSKNTVYLQMNSLRPEDTAVYYCAAVPAGRLRYGEQWYPIYEYDAWGQGTLVTVSS
B18 returned an IC50 in experiment [4] of 0.05 nM. Besides, the hAng1/hAng2 IC50 ratio in experiment [5] was over 201000.

B19: VHH 00919 (VHH, not shown: small tags and cut ends)
VHH: EVQLVESGGGLVQPGGSLRLSCAASGFTLDDYAIGWFRQAPGKEREGVSAIRDNGGSTYYADSVKGRFTISSDNSKNTVYLQMNSLRPEDTAVYYCAAVPAGRLRFGEQWYPLYEYDAWGQGTLVTVSS
For the molecule B19, the IC50 in experiment [4] stood at 0.9 nM. Further, the hAng1/hAng2 ratio in experiment [5] was over 11200.

B20: VHH 00053 (VHH, not shown: small tags and cut ends)
VHH: EVQLVESGGGLVQPGGSLRLSCAASGFTLDDYAIGWFRQAPGKEREGVSSIRDNDGSTYYADSVKGRFTISRDNDKNTVYLQMNSLRPEDTAVYYCAAVPAGRLRFGEQWYPLYEYDAWGQGTLVTVSS
In turn, B20 returned an IC50 in experiment [6] of 10.7 nM.

B21: VHH 10C06 (VHH, not shown: small tags and cut ends)
VHH: EVQLVESGGGLVQAGGSLRLSCVASGFTFDDYAIGWFRQAPGKEREGVSCISSSDGSTYYADSVKGRFTISGDNAKNTVYLQMNSLKPEDTAVYYCAAGITPCSDYTQTYEYDVWGQGTQVTVSS
Consider B21, for which the IC50 in experiment [1] was determined as 7.7 nM.

B22: VHH 14H02 (VHH, not shown: small tags and cut ends)
VHH: EVQLVESGGGLVQAGGSLRLSCAASGFTFDEYAIGWFRQAPGKEREGVSYISSSDGSTYYADSVKGRVTSSSDNAKNTVYLQMNSLKPEDTAVYYCAARPTLRVRLDNDRHHLLYEYEYDYWGQGTQVTVSS
As to B22, the IC50 in experiment [1] was determined as 64.4 nM.

B23: VHH 12B03 (VHH, not shown: small tags and cut ends)
VHH: EVQLVESGGGLVQSGGSLRLSCAASGFALDYYTIGWFRQAPGKEREGVSCISGGDTSTYYADSVKGRFTISRDNAKNTVYLQMNSLKPEDTAVYYCATDSAGVPAGPAAVYGSTCSRLEYDYWGQGAQVTVSS
As to B23, in experiment [1], the IC50 came to 4.6 nM.

B24: VHH 3F02 (VHH, not shown: small tags and cut ends)
VHH: EVQLVESGGGLVQVGDSLRLACAASGRTFSTYLMVGWFRQAPGKEREFAAGIWSSGDTAYADSVKGRFTISRDNAKNTVYLQMNSLKTEDTAVYYCAGSYDGNYYIPGFYKDWGQGTQVTVSS
In the case of B24, the IC50 in experiment [1] turned out to be 9.1 nM.

B25: VHH 22C07 (VHH, not shown: small tags and cut ends)
VHH: EVQLVESGGGLVQAGGSLRLSCAASGFTFDDYAIGWFRQAPGKEREGVSCISSSDGSTYYADSVKGRFTISSDNAKNTVYLQMNSLKPEDTAVYYCAADFIISSKRLCLDLFGSRGQGTQVTVSS
B25 gave an IC50 in experiment [1] of 11 nM. Moreover, the % inh in experiment [2] was determined as 73%; in experiment [3] it was 78%.

B26: VHH 16G09 (VHH, not shown: small tags and cut ends)
VHH: EVQLVESGGGLVQAGGSLRLVCSASGIDFSINAMAWYRQAPGKQREWVAFMINDSSTDYTDSVKGRFTISRDSTKNILYLQMNNLNVEDTAVYYCNTAYEQHTYWGQGTQVTVSS
B26 displayed an IC50 in experiment [1] of 11.3 nM.

B27: VHH 6H05 (VHH, not shown: small tags and cut ends)
VHH: EVQLVESGGGLVQAGGSLRLSCAASGFTFDDYAIGWFRQAPGKEREGVSCISSSDGSTAYADSVKGRFTISSDNAKNTVYLQMNSLKPEDTAVYYCTAVPATRRTPQMVAANVCWLAEYEYDYWGQGTQVTVSS
B27 showed an IC50 in experiment [1] of 5.3 nM.

The values are drawn from US20230203146A1.
